7 molecules from patent publication US12497460B2, “Anti-MSR1 antibodies and methods of use thereof” (REGENERON PHARMACEUTICALS, INC., priority 2018, dated 2025) can be followed below.

Numbering of substitutions follows the chain as printed. Names may count otherwise.

Assay [1] relates to B16F10.9 cells (MSR1 negative). As to the kind of experiment: Flow cytometry binding, MSR1 negative cells. Particulars: 10 μg/mL antibody. Type of assay: cell-based, mouse. The procedure:
Relative cell surface binding of the anti-MSR1 antibodies to mouse MSR1 expressing cells was determined by flow cytometry using MSR1 positive RAW264.7 cells (ATCC, Catalog #TIB-71) and MSR1 negative B16F10.9 cells (Lin et al. 1998. PNAS 95:8829-8834). For the assay, cells were plated in PBS without calcium and magnesium (VWR Cat #45000-446) and 2% FBS (Saradigm Cat #1500-500) (Staining Buffer) in 96 well V-bottom plates (Axygen Scientific, Cat #P-96-450-V-C-S). To block binding to Fc receptors, RAW264.7 cells were incubated for 30 minutes at 4° C. with 500 μg/mL mouse IgG (Jackson ImmunoResearch, Cat #015-000-003) diluted in staining buffer, while B16F10.9 cells remained in staining buffer. Following Fc receptor blocking, 10 μg/mL of anti-MSR1 antibodies or an isotype control antibody were added to the cells and were subsequently incubated for 30 minutes on ice. For a positive control, a commercial anti-mouse MSR1 (Sino Biological, Cat #50129-R004) antibody was used, while a rabbit IgG antibody (Thermo Scientific, Cat #26102) was used as a negative control. […] Cells were subsequently washed and fixed using a 50% solution of Cytofix (BD Biosciences, Cat #554655) diluted in PBS. […] The signal to noise (S/N) was determined by calculating the ratio of the anti-MSR1 antibodies or the control antibodies MFI to the unstained sample MFI (Table 11).

Assay [2] concerns the target T1, His9-hMSR1 (human MSR1 extracellular domain) (Homo sapiens, UniProt P21757).
T1 construct: human MSR1 extracellular domain expressed with a N-terminal nonahistidine tag; His9 (nonahistidine) (N); purchased R&D Systems 2708-MS
T1 sequence (P21757 77-451 limits assumed): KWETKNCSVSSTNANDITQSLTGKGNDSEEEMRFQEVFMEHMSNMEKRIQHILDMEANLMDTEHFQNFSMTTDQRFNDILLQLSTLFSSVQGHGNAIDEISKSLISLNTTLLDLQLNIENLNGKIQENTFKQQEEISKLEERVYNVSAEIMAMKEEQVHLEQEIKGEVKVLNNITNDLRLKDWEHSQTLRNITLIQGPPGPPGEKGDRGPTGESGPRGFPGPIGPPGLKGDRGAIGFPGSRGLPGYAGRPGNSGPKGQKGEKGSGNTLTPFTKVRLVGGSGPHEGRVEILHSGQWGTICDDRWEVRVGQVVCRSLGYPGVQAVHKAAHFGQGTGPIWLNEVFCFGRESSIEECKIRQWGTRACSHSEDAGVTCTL
Briefly: Biacore T200 surface plasmon resonance binding kinetics of anti-MSR1 antibody-drug conjugates and parental antibodies. Particulars: 25° C.; for kd: * = no dissociation observed, kd manually fixed at 1.00E−05. The protocol: The MSR1 antibodies disclosed herein were conjugated to various liver X receptor (LXR) payloads or various steroid payloads. This example describes how equilibrium dissociation constant (KD) values for human MSR1 reagents binding to human anti-MSR1 antibody-drug conjugates and their corresponding unconjugated parental antibodies were determined using a real-time surface plasmon resonance-based Biacore T200 biosensor.
All binding studies were performed in 10 mM HEPES, 300 mM NaCl, 3 mM EDTA, and 0.05% v/v Surfactant Tween-20, pH 7.4 (HBS-ET) running buffer at 25° C. The Biacore CM4 sensor chip surface was first derivatized by amine coupling with the goat anti-human Fcγ specific polyclonal antibody (Jackson ImmunoResearch Laboratories, Cat #BR-1008-39) to capture anti-MSR1 monoclonal antibodies. Binding studies were performed on human MSR1 extracellular domain expressed with a N-terminal nonahistidine tag (His9-hMSR1; R&D Systems, Cat #2708-MS).
The association rate (ka) and dissociation rate (kd) were determined by fitting the real-time binding sensorgrams to a 1:1 binding model with mass transport limitation using Scrubber 2.0c curve-fitting software. Binding dissociation equilibrium constant (KD) and dissociative half-life (t½) were calculated from the kinetic rates as: […]
Binding kinetics parameters for His9-hMSR1 binding to different anti-MSR1 antibody-LXR ADCs and their unconjugated parental antibodies at 25° C. are shown in Table 19. “LP1” represents a linker-payload for which the payload structure is provided in Example 11.
The binding studies were repeated with anti-MSR1 antibody H1H21234-N297Q and steroid linker payloads (LPs). “LP3” represents a linker-payload for which the structure is provided in Example 23, and “LP13” represents a linker-payload for which the structure is provided in Example 24.
In general terms: Surface plasmon resonance follows binding to a sensor surface in real time, without labels.

Assay [3] has as its target T2, MSR1-mediated Dil-AcLDL uptake in HEK293.Myc.hMSR1 cells (Homo sapiens, UniProt P21757).
T2 construct: expressed in transfected cells; host or cells: HEK293 (lentiviral transduction, hygromycin selection)
T2 sequence (P21757 1-451): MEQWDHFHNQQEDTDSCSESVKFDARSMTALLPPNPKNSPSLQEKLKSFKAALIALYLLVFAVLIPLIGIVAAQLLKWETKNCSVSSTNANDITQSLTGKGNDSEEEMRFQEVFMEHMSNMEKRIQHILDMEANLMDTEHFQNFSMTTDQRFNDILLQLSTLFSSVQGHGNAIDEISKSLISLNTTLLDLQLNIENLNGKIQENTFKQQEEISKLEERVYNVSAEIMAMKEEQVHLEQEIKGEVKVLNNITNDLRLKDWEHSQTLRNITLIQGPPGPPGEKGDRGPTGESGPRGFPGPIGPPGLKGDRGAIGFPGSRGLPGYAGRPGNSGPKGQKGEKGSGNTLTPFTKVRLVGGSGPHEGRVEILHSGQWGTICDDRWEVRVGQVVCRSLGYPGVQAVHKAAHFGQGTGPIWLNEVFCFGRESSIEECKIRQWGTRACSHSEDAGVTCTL
Briefly: Ligand uptake assay, Dil-AcLDL. Particulars: 10 μg/mL Dil-AcLDL; for IC50: read-out: Dil-Acetylated LDL IC50; for Dil-Acetylated LDL % Inhibition: maximum inhibition. Type of assay: cell-based. The protocol: A bioassay was generated to assess the ability of the exemplary anti-MSR1 antibodies to regulate the uptake of certain MSR1 ligands.
Generation of MSR1-expressing cell lines for assay. […] The resulting cell line, referred to here as “HEK293.Myc.hMSR1”, was selected and maintained in DMEM containing 10% FIBS, NEAA, penicillin/streptomycin, L-glutamine, and 100 μg/mL hygromycin.
Ligand uptake assay. […] After 30 minutes, either oxidized or acetylated low-density lipoprotein (LDL) labeled with 1,1′dioctadecyl-3,3,3′,3′-tetramethylindocarbocyanine perchlorate (referred to as “Dil-OxLDL” or “Dil-AcLDL,” respectively) was added to the cells at a constant concentration of 10 μg/mL. […] Results were analyzed using nonlinear regression (4-parameter logistics) with the Prism 7 program to obtain EC50 and IC50 values. The percentage of inhibition was calculated with the Relative Fluorescent Unit (RFU) values by using the following equation: […]
In the equation, “RFUBaseline” is the fluorescence value from the cells treated with 10 μg/mL ligand without antibodies, “RFUInhibition” is the minimum fluorescence value with for a particular antibody with 10 μg/mL ligand, and “RFUBackground” is the fluorescence value from cells without any ligand or antibodies.

The mark [4] stands for this setting: Table 19, antibody-LXR ADCs and unconjugated antibodies.

B1: H1H27731P-N297Q: one of "Twelve anti-MSR1 antibodies"; "made with an N297Q single point mutation in human Fcγ portion" (antibody, V domains shown)
VH: QLQLQESGPGLVKPSETLSLTCTVSGGSISRISYYWGWIRQPPGKGLEWIGSIYDSGSTYYNPSLKSRVTISIDTSKNQFSLKLSSVTAADTAVYYCVRYSSSSAFAFDYWGQGTLVTVSS
VL: DIQMTQSPSSVSASVGDRVTITCRASQGISSWLAWYQQKPGKAPKLLIYAASSLQSGVPSRFSGSGSGTDFTLTISSLQPEDFATYYCQQANSFPFTFGPGTKVDIKR
Turning to B1, in assay [1], the “B16F10.9 MFI” value was 3688. The ka in assay [2] (setting [4]) turned out to be 117000 M⁻¹ s⁻¹. The kd in assay [2] (Table 19) turned out to be 1e-05 s⁻¹.

B2: H1H27754P-N297Q: one of "Twelve anti-MSR1 antibodies"; "made with an N297Q single point mutation in human Fcγ portion" (antibody, V domains shown)
VH: EVQLVESGGGLVQPGGSLRLSCAASGFTFRTYAMTWVRQAPGKGLDWVSAITGDGGNTYYADSVKGRFTISRDNSKNTLYLQMNSLRAEDTAIYYCAKDQRFSFALYYFDYWGQGTLVTVSS
VL: B1 VL with K42N, S52F, S93N, F96W, P100Q, D105E
As for B2, the “B16F10.9 MFI” value in assay [1] stood at 4091. In addition, in assay [2] (setting [4]), the ka was 200000 M⁻¹ s⁻¹. Further, in assay [2] (Table 19), the kd is on record as 1.00E−05* s^−1.

B3: H1H27747P-N297Q (antibody, V domains shown)
VH: QVQLVESGGAVVQPGRSLRLSCAASGFTFSYYGMHWVRQAPGKGLEWVAVISYDGSKKYYADSVKGRFTISRDNSKNTLYLQMNSLRAEDTAVYYCAKDLTVDFYYGMDVWGQGTTVTVSS
VL: B1 VL with A51T, V58A, Y87F, F96Y, P100Q, V104L, D105E
As to B3, the “B16F10.9 MFI” value in assay [1] was 3875. The ka in assay [2] (setting [4]) was found to be 117000 M⁻¹ s⁻¹. Besides, the kd in assay [2] (Table 19) came out at 0.000262 s⁻¹.

B4: H1H21231N: "anti-MSR1 antibodies ... (21227N, 21231N, 21234N) were produced with the original human Fcγ portion"; "H1H" = human IgG1 Fc (antibody, V domains shown)
VH: EVQLVESGGGLVQPGGSLRLSCAASGFTFSDHYMDWVRQAPGKGLEWVGRTRNKANSHTTEYTASVTGRFTISRDDSRNSLYLQMNSLKTEDTAVYYCVRAGIIGTLFDYWGQGTLVTVSS
VL: DIQMTQFPSSLSASVGDRVTITCRASQSISSFLNWFQQKPGKAPKFLIYAASSLQSGVPSRFSGSGSGTDFTLTISSLQPEDFATYYCQQSYSSPPITFGQGTRLEIKR
modifications: human IgG1 Fc
notes: "anti-MSR1 antibodies ; (21227N, 21231N, 21234N) were produced with the original human Fcγ portion"; "H1H" = human IgG1 Fc
On to B4, for which, in assay [3], the IC50 is 3.5 nM and the “Dil-Acetylated LDL % Inhibition” value is listed as 63%.

B5: H1H21227N: "anti-MSR1 antibodies ... (21227N, 21231N, 21234N) were produced with the original human Fcγ portion"; "H1H" = human IgG1 Fc (antibody, V domains shown)
VH: QVQLVQSGAEVKKPGASVKVSCKVSGYTLTELSIHWVRQVPGKGLEWMGGFDPEEGETIFAQEFRDRVTLTEDTSPDTAYMELSSLKSEDAAVYYCTTPRYCNNGICYDYWGQGTLVTVSS
VL: B4 VL with F7S, S31N, F32Y, F36Y, F46L, A50T, P80T, S94N, P95F
modifications: human IgG1 Fc
notes: as for B4
As for B5, in assay [3], the IC50 worked out at 2.1 nM and the “Dil-Acetylated LDL % Inhibition” value was determined as 65%.

B6: H1H27729P-N297Q: anti-MSR1 antibody "made with an N297Q single point mutation in human Fcγ portion" (antibody, V domains shown)
VH: QVQLVESGGGLVKPGGSLRLSCAASGFIFSDYYMSWIRQAPGKGLEWVSYISSSGTTIYGDSVKGRFTMSRDNAKNSLYLQMNSLRAEDTAVYYCARNYALFDYWGQGTLVTVSS
VL: DIQMTQSPSSLSASVGDRVTITCQASQDISKYLNWYQQKPGKAPKLLIYYTSNLETGVPSRFSGSGSGTDFTFTISSLQPEDIATYYCHQSDYLPFTFGPGTKVDIKR
Take B6: the “B16F10.9 MFI” value in assay [1] amounted to 3459. Moreover, the ka in assay [2] (setting [4]) was determined as 105000 M⁻¹ s⁻¹. The kd in assay [2] (Table 19) was determined as 0.000906 s⁻¹.

B7: H1H21234N-N297Q-LP13 (conjugate)
VH: QVQLQESGPGLVKPSETLSLTCTVTGGSISRNYWSWIRQPPGKGLEWIGYIYYSGSIDYNPSLKSRVTISVDTSKNQFSLKLSSMTAADTAVYYCARDRWNWKYGMDVWGQGTTVIVSS
VL: EIVLTQSPGTLSLSPGERATLSCRASQTVRNNYLAWYHQKPGQAPRLLIYGASSRATGIPDRFSGSGSGTDFTLTISRLEPEDFTVYYCHQYGNSPWTFGQGTKMEIKR
In the case of B7, in assay [2] (Table 20, antibody-steroid ADCs and unconjugated antibody), the ka came out at 400000 M⁻¹ s⁻¹. Further, in assay [2] (Table 20), the kd was found to be 1e-05 s⁻¹.

What is called IC50 is the midpoint of a concentration-inhibition curve.
